Data: article PMC4817256

Biological target: eukaryotic translation initiation factor 4E (human (endogenous in U2OS and HeLa)) (UniProt P06730)
Assay: proximity ligation

Sequence of UniProt P06730 (P06730 whole entry): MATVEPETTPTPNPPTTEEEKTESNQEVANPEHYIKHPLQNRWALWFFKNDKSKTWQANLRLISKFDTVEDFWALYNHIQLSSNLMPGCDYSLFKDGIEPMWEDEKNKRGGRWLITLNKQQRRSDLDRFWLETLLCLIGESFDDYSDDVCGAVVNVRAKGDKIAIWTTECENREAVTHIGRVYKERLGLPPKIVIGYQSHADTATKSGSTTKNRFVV

Substance: HIV-1 Gag-GFP (natural protein)
- PLA dots per cell (dots per cell): 6.98
